From patent US20080242594A1, “Methods for Promoting Stem Cell Proliferation and Survival” (priority 2005, published 2008)
Entries after “also recorded” stand apart in the source; their conditions may differ.

Experiments:
STAT3 = STAT3 phosphorylation (Ser727, Tyr705) immunoblot in CNS stem cells; format: cell-based, mouse; conditions: for effect on STAT3-Ser727 phosphorylation following Notch activation: Notch ligand treated CNS stem cells
Excerpt: Ligands that activate JAK/STAT signaling promote astrocytic differentiation of CNS stem cells (Johe et al., Genes Dev 10:3129-40, 1996; Raj an et al., J Neurosci 18:3620-9, 1998; Bonni et al., Science 278:477-83, 1997; Song et al., Nat Neurosci 7:229-35, 2004; He et al., Nat Neurosci 8:616-625, 2005). When applying CNTF to CNS stem cells it was noted that low concentrations of CNTF stimulated survival but not expression of astrocyte specific genes. This is consistent with previous observations of Akt phosphorylation downstream of gp130 activation (Taga et al., Annu Rev Immunol 15:797-819, 1997). […] At high concentrations (20 ng/ml) the phosphorylation of Tyr705 can be blocked by an inhibitor of JAK while allowing a CNTF-induced increase in Ser727 phosphorylation (FIG. 2B) (Thompson et al., Bioorg Med Chem Lett 12:1219-23, 2002).
CNTF was used as a positive control; CNTF, induced the phosphorylation on both sites. With both CNTF and Notch activation, phosphorylation peaked at around 30 min. STAT3 phosphorylation on Ser727 following Notch activation was sensitive to the γ-secretase inhibitor DAPT (FIG. 2e). […] In contrast to CNTF, no Tyr705 phosphorylation was detected at any of the doses of Notch receptor ligands.
It was determined that insulin also maintains phosphorylation of serine 727 in STAT3 in foetal neural stem cell cultures.

Hes3 = Hes3 expression (RT-PCR, immunohistochemistry) in CNS stem cells; format: cell-based, mouse; conditions: for effect on Jagged-induced Hes3 mRNA induction: CNTF at high concentrations (>1 ng/ml)
Procedure: RT-PCR: For reverse-transcriptase PCR analysis, RNA was extracted from cell cultures or brain homogenates with Trizol (Invitrogen, 15596-026), and PCR reactions were performed with the ProSTAR First-Strand RT-PCR Kit (Stratagene, 200420). Primers were used for the following genes: Hes1, Hes2, Hes3, Hes5, Hes6, Hey2; Hes7
Notch signaling regulates transcription of the Hes/Hey gene family, a group of genes implicated in the control of differentiation (Iso et al., J Cell Physiol 194:237-55, 2003). RT-PCR was used to assess mRNA regulation of these genes one hour after Notch activation in CNS stem cells. […] The ability of high concentrations of CNTF to inhibit Hes3 induction following Notch activation was dependent on JAK activity (FIG. 4e). In contrast, in the absence of added Notch ligand, Hes3 mRNA levels were elevated by high CNTF and the JAK inhibitor (FIG. 4e).
Conversely, treatment with ciliary neurotrophic factor (CNTF), a cytokine that opposes the signal transduction pathway downstream of Notch activation opposed the ability of D114 to induce Hes3 transcription. Immunohistochemical experiments were performed that documented D114, CNTF regulate Hes3 expression. Thus, at the protein expression level, D114 maintains and CNTF inhibits Hes3 expression.

Notch1 = experiment: Notch activation (Notch1IC / Notch ICD) immunocytochemical detection; format: cell-based, mouse; conditions: Notch ligands 1 hour
Excerpt: Antibodies were used that specifically bind: Notch1IC (Chemicon, 5352), GFP (Molecular Probes, A11122), Oct3/4 (Santa Cruz, sc-5279), SSEA1 and SSEA4 (Developmental Studies HybridomaBank), Tra-1-60 (Chemicon, MAB4360), Tra-1-81 (Chemicon, MAB4381), human nestin (Chemicon, MAB5326), Sox-1 (Gift from Dr. R Lovell-Badge), TH (Pel-Freez, P40101-0), Tuj1 (Covance, MMS-435P), rat nestin (McKay Lab), GFAP (Dako, z0334), CNPase (Chemicon, MAB326), BrdU (Accurate, H5903), DCX (Santa Cruz, sc-8066), Sox2 (R&D, MAB2018), Hu (Molecular Probes, A21271).
To assay for Notch activation, cultures were treated with the Notch ligands for 1 hour and Notch1 activation was detected by immunocytochemical staining of Notch1IC (FIG. 1b).
It was determined that insulin facilitates Notch cleavage using immunocytochemical detection.

[1] = tested on: E13.5 cortical embryonic mouse CNS stem cells; experiment: CNS stem cell plating efficiency / colony formation / survival; format: cell-based; conditions: 5 days, versus FGF2 control; CNTF low 0.01, 0.1 ng/ml or high 20 ng/ml with JAK inhibitor
Procedure: Cell culture: E13.5 cortical embryonic mouse and adult rat subventricular zone CNS stem cells were grown as previously described (Johe et al., Genes Dev 10:3129-40, 1996; Rajan et al., J Neurosci 18:3620-9, 1998). Cells were expanded in serum-free DMEM/F12 medium with N2 supplement with FGF2 (20 ng/ml) for 5 days and were re-plated at 1000-10,000 cells per cm^2. FGF2 was included throughout our experiments, unless otherwise stated.
To explore these paradoxical observations, CNS stem cell cultures from mid-gestation (embryonic day 13.5) mouse dorsal telencephalon were treated with soluble Notch ligands. […] Following initial passaging, the cells were plated at a density of 1000 cells/cm^2, cultured for 5 days in the presence of FGF2, and colony numbers, sizes, and BrdU incorporation (after a 4 hour BrdU pulse) were enumerated. Notch activation by Jagged-1 or Delta-4 (200 ng/ml) increased the number of colonies generated in vitro by over 3-fold (FIG. 1a). […] The effects of Notch activation were most dramatic when treatments were initiated at the start of the culture.
Insulin in the medium is also thought to promote cell survival. […] Seeding cells in the absence of insulin caused the plating efficiency measured at five days to drop to 29.9%±37.9 (FIG. 1e). Delta-4 was able to compensate for the lack of insulin in the medium, and restored plating efficiency (125%±19.4). Because Notch activation improved survival, activation of Akt, a ser/threonine kinase known to be involved in cell survival, was assayed. Notch activation rapidly (5 minutes) promoted the phosphorylation of Akt on Ser473 and […] in both the presence and absence of insulin (FIG. 1f).

nucleostemin, SHH = experiment: Nucleostemin and SHH protein expression in CNS stem cells; format: cell-based, mouse
Excerpt: The interest in stem cell self-renewal mechanisms prompted analysis of potential down-stream components of the Notch/STAT3-Ser727 (Notch/sSTAT) pathway. Nucleostemin is a p53-binding protein expressed in self-renewing CNS stem cells and cancer cells (Tsai et al., J Neurosci 20:3725-35, 2000; Tsai et al., J Cell Biol 168:179-84, 2005). Sonic Hedgehog (SHH) is a protein with functions in fate specification and stem cell survival in the fetal and adult CNS (Palma et al., Development 132:335-44, 2005).
There are two forms of mRNA encoded by the Hes3 gene, Hes3a and Hes3b.

COc1ccc(S(=O)(=O)Nc2ccccc2CN(C)C/C=C/c2ccc(Cl)cc2)cc1 [KN92, reference compound]
effect on STAT3-Ser727 phosphorylation following Notch activation (STAT3): no effect

C[C@H](NC(=O)Cc1cc(F)cc(F)c1)C(=O)N[C@H](C(=O)OC(C)(C)C)c1ccccc1 [DAPT, reference compound]
basal levels of pSer727 (STAT3): reduced the basal levels of pSer727 | effect on STAT3-Ser727 phosphorylation following Notch activation (STAT3): blocked | effect on Jagged-induced Hes3 mRNA induction (Hes3): inhibited Hes3 induction by Jagged1 | accumulation of Notch1IC (Notch1): blocks the accumulation of Notch1IC

CN(C)S(=O)(=O)c1ccc2c(c1)/C(=C/c1cc3c([nH]1)CCCC3)C(=O)N2 [SU6656, reference compound]
effect on STAT3-Ser727 phosphorylation following Notch activation (STAT3): blocked

B1: CNTF: cilliary neurotrophic factor, CNTF (577-NT) from R&D (protein, UniProt P26441 1-200, looked up)
Ciliary neurotrophic factor: MAFTEHSPLTPHRRDLCSRSIWLARKIRSDLTALTESYVKHQGLNKNINLDSADGMPVASTDQWSELTEAERLQENLQAYRTFHVLLARLLEDQQVHFTPTEGDFHQAIHTLLLQVAAFAYQIEELMILLEYKIPRNEADGMPINVGDGGLFEKKLWGLKVLQELSQWTVRSIHDLRFISSHQTGIPARGSHYIANNKKM
time of peak STAT3 phosphorylation (STAT3): around 30 min | concentration at which phosphorylation of STAT3 on Tyr705 occurs (STAT3; dose response, 30 minutes): > 1 ng/mL | concentration inducing phosphorylation of STAT3 on Ser727 (STAT3; dose response, 30 minutes): < 0.5 ng/mL | CNS stem cell survival / plating efficiency [1]: increased survival; also recorded: support CNS stem cell survival | nucleostemin and SHH protein expression (nucleostemin, SHH): Nucleostemin levels were also increased | Hes3 mRNA levels (Hes3; CNTF 20 ng/ml): did not induce Hes3 mRNA | effect on Jagged-induced Hes3 mRNA induction (Hes3): inhibited Hes3 induction by Jagged1 | Hes3 expression at the protein expression level (Hes3; immunohistochemical): inhibits
